± gives the uncertainty stated by the source.
Assay: self-splicing fitness, log relative to wild type (ln ratio); higher = more splicing; Tetrahymena group I intron in knt gene, E. coli kanamycin selection, DiMSum; sequences stand for … in CUCUCU…GGAGGGAAAAGUUAUCAGGCAUGCACCUGGUAGCUAGUCUUUAAACCAAUAGAUUGCAUCGGUUUAAAAGGCAAGACCGUCAAAUUGCGGGAAAGGGGUCAACAGCCGUUCAGUACCAAGUCUCAGGGGAAACUUUGAGAUGGCCUUGCAAAGGGUAUGGUAAUAAGCUGACGGACAUGGUCCUAACCACGCAGCCAAGUCCUAAGUCAACAGAUCUUCUGUUGAUAUGGAUGCAGUUCACAGACUAAAUGUCGGUCGGGGAAGAUGUAUUCUUCUCAUAAGAUAUAGUCGGACCUCUCCUUAAUGGGAGCUAGCGGAUGAAGUGAUGCAACACUGGAGCCGCUGGGAACUAAUUUGUAUGCGAAAGUAUAUUGAUUAGUUUUGGAGUACUCGUGGUCG
Procedure, shortened: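 Colonies from six replicate transformations of E. coli BL21(DE3) were pooled and amplicon-sequenced on an Illumina HiSeq 2500. The library placed an intron with all eight P1ex-region nucleotides randomised inside the knt kanamycin-resistance gene on pET-22b(+), and cells grew overnight at 37°C or 30°C on LB agar with or without 25 μg/mL kanamycin (plus 100 μg/mL carbenicillin, 50 μM IPTG, 0.2% rhamnose). Fitness is the DiMSum error-weighted combination of wild-type-normalised replicate fold changes, kanamycin versus none.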

Row | Sequence | self-splicing fitness (ln) (37 °C) | self-splicing fitness (ln) (30 °C)
1 | GUCUAGCAAUAUUACGAUAG | -2.96 ± 0.27 | –
2 | GUCUAGCAAUAUUACGAUAU | -0.0984 ± 0.12 | -0.897 ± 0.12
3 | GUCUAGCAAUAUUACGCCUG | -3.47 ± 0.41 | –
4 | GUCUAGCAAUAUUACGGAUC | -1.85 ± 0.27 | -1.99 ± 0.28
5 | GUCUAGCAAUAUUACGGCAG | -1.72 ± 0.44 | –
6 | GUCUAGCAAUAUUACGGCCA | -0.587 ± 0.22 | -1.87 ± 0.35
7 | GUCUAGCAAUAUUACGGCCC | 0.974 ± 0.31 | -2.32 ± 0.39
8 | GUCUAGCAAUAUUACGGGAC | -1.65 ± 0.45 | –
9 | GUCUAGCAAUAUUACGGUAA | -0.172 ± 0.11 | -1.67 ± 0.11
10 | GUCUAGCAAUAUUACGGUGG | -3.96 ± 0.46 | -2.87 ± 0.17
11 | GUCUAGCAAUAUUACGUACU | -0.0535 ± 0.1 | -0.946 ± 0.11
12 | GUCUAGCAAUAUUACGUAGA | -0.93 ± 0.2 | -1.69 ± 0.14
13 | GUCUAGCAAUAUUACGUAGC | 0.302 ± 0.2 | -1.45 ± 0.15
14 | GUCUAGCAAUAUUACGUCCU | -0.136 ± 0.14 | -0.102 ± 0.16
15 | GUGAAGCAAUAUUACGAACA | 0.0414 ± 0.11 | -0.242 ± 0.076
16 | GUGAAGCAAUAUUACGAAGG | -0.854 ± 0.17 | -1.91 ± 0.14
17 | GUGAAGCAAUAUUACGACAC | 0.386 ± 0.18 | -1.1 ± 0.12
18 | GUGAAGCAAUAUUACGAGAG | -1.7 ± 0.1 | -2.92 ± 0.11
19 | GUGAAGCAAUAUUACGAGGG | -1.29 ± 0.13 | -3.74 ± 0.25
20 | GUGAAGCAAUAUUACGAUUA | -0.124 ± 0.13 | 0.198 ± 0.084
21 | GUGAAGCAAUAUUACGCAGU | -1.02 ± 0.19 | -2.6 ± 0.22
22 | GUGAAGCAAUAUUACGCCAC | – | -2.66 ± 0.5
23 | GUGAAGCAAUAUUACGCCUU | -0.45 ± 0.17 | -0.0499 ± 0.15
24 | GUGAAGCAAUAUUACGCGUU | -2.02 ± 0.21 | -3.59 ± 0.2
25 | GUGAAGCAAUAUUACGCUUC | -2.41 ± 0.3 | -4.23 ± 0.32

Row | Sequence | self-splicing fitness (ln) (37 °C) | self-splicing fitness (ln) (30 °C)
26 | GUGAAGCAAUAUUACGGCAG | -1.06 ± 0.16 | -2.32 ± 0.13
27 | GUGAAGCAAUAUUACGGCGU | 0.727 ± 0.15 | 0.663 ± 0.12
28 | GUGAAGCAAUAUUACGGUAG | -0.687 ± 0.1 | -1.79 ± 0.087
29 | GUGAAGCAAUAUUACGGUCA | 0.46 ± 0.12 | -0.465 ± 0.11
30 | GUGAAGCAAUAUUACGGUCG | -0.0595 ± 0.085 | -0.124 ± 0.063
31 | GUGAAGCAAUAUUACGUAUA | -0.347 ± 0.1 | -1.53 ± 0.077
32 | GUGAAGCAAUAUUACGUGCA | -0.0531 ± 0.11 | 0.391 ± 0.085
33 | GUGCAGCAAUAUUACGAAAC | -1.26 ± 0.095 | -1.82 ± 0.1
34 | GUGCAGCAAUAUUACGACCG | -1.5 ± 0.27 | -2.18 ± 0.2
35 | GUGCAGCAAUAUUACGACCU | -0.504 ± 0.24 | -1.51 ± 0.27
36 | GUGCAGCAAUAUUACGAGCG | -0.518 ± 0.083 | -0.973 ± 0.072
37 | GUGCAGCAAUAUUACGCCGG | – | -2.21 ± 0.41
38 | GUGCAGCAAUAUUACGCCUC | 0.123 ± 0.21 | -0.807 ± 0.17
39 | GUGCAGCAAUAUUACGCGCC | -1.95 ± 0.33 | -3.58 ± 0.4
40 | GUGCAGCAAUAUUACGCGGG | -1.03 ± 0.2 | -2.81 ± 0.36
41 | GUGCAGCAAUAUUACGGAAG | -1.77 ± 0.25 | -3.19 ± 0.24
42 | GUGCAGCAAUAUUACGGGAC | -2.82 ± 0.48 | -2.09 ± 0.19
43 | GUGCAGCAAUAUUACGGGCA | -1.23 ± 0.15 | -2.08 ± 0.15
44 | GUGCAGCAAUAUUACGGGUC | -0.803 ± 0.14 | -2.38 ± 0.13
45 | GUGCAGCAAUAUUACGGUGA | 0.095 ± 0.12 | -0.753 ± 0.095
46 | GUGCAGCAAUAUUACGUCAA | -0.634 ± 0.12 | -1.6 ± 0.15
47 | GUGCAGCAAUAUUACGUUAC | -2.93 ± 0.38 | -3.66 ± 0.33
48 | GUGGAGCAAUAUUACGAAAU | -2.05 ± 0.29 | -4.22 ± 0.36
49 | GUGGAGCAAUAUUACGAGUU | -1.7 ± 0.43 | –
50 | GUGGAGCAAUAUUACGAUUU | -1.29 ± 0.29 | -1.07 ± 0.27

Row | Sequence | self-splicing fitness (ln) (37 °C) | self-splicing fitness (ln) (30 °C)
51 | GUGGAGCAAUAUUACGCACU | – | 0.427 ± 0.33
52 | GUGGAGCAAUAUUACGCAGU | -2.58 ± 0.31 | -2.88 ± 0.18
53 | GUGGAGCAAUAUUACGCGUA | -0.34 ± 0.25 | -2.14 ± 0.36
54 | GUGGAGCAAUAUUACGGCAA | -1.55 ± 0.35 | –
55 | GUGGAGCAAUAUUACGGCGG | -1.54 ± 0.27 | -3.32 ± 0.29
56 | GUGGAGCAAUAUUACGUAUU | -1.68 ± 0.21 | -3.11 ± 0.17
57 | GUGGAGCAAUAUUACGUCUC | -2.77 ± 0.16 | -3.56 ± 0.15
58 | GUGUAGCAAUAUUACGAACG | -0.988 ± 0.23 | -1.76 ± 0.16
59 | GUGUAGCAAUAUUACGAAUA | -1.39 ± 0.43 | -1.91 ± 0.39
60 | GUGUAGCAAUAUUACGACAA | -0.365 ± 0.21 | -0.665 ± 0.14
61 | GUGUAGCAAUAUUACGACAU | -1.52 ± 0.037 | -2.608 ± 0.022
62 | GUGUAGCAAUAUUACGAGCC | -2.28 ± 0.31 | -2.65 ± 0.38
63 | GUGUAGCAAUAUUACGAGCU | -0.678 ± 0.21 | -2.36 ± 0.17
64 | GUGUAGCAAUAUUACGAUGU | -0.234 ± 0.14 | -1.36 ± 0.12
65 | GUGUAGCAAUAUUACGCACU | -2.13 ± 0.33 | -2.59 ± 0.41
66 | GUGUAGCAAUAUUACGCAUA | -1.31 ± 0.19 | -2.5 ± 0.21
67 | GUGUAGCAAUAUUACGCAUG | -2.67 ± 0.41 | -2.88 ± 0.27
68 | GUGUAGCAAUAUUACGCCCA | -0.199 ± 0.35 | –
69 | GUGUAGCAAUAUUACGCCGC | -2.79 ± 0.44 | -3 ± 0.46
70 | GUGUAGCAAUAUUACGGCAA | -0.481 ± 0.23 | -0.687 ± 0.17
71 | GUGUAGCAAUAUUACGGGAA | -1.74 ± 0.2 | -2.77 ± 0.19
72 | GUGUAGCAAUAUUACGGGGU | -2.63 ± 0.34 | -3.62 ± 0.26
73 | GUGUAGCAAUAUUACGGUAU | -0.18 ± 0.12 | -2.35 ± 0.12
74 | GUGUAGCAAUAUUACGUACA | -1.87 ± 0.28 | -1.49 ± 0.2
75 | GUGUAGCAAUAUUACGUAGU | -1.37 ± 0.17 | -2.99 ± 0.18

Row | Sequence | self-splicing fitness (ln) (37 °C) | self-splicing fitness (ln) (30 °C)
76 | GUGUAGCAAUAUUACGUCAA | -1.14 ± 0.15 | -1.16 ± 0.15
77 | GUGUAGCAAUAUUACGUGCA | -1.11 ± 0.26 | -2.55 ± 0.21
78 | GUGUAGCAAUAUUACGUUCA | -0.597 ± 0.13 | -0.405 ± 0.14
79 | GUUAAGCAAUAUUACGAAAU | -2.16 ± 0.24 | -1.41 ± 0.16
80 | GUUAAGCAAUAUUACGAAUC | -0.464 ± 0.17 | -1.8 ± 0.29
81 | GUUAAGCAAUAUUACGACAC | 0.479 ± 0.19 | -0.925 ± 0.13
82 | GUUAAGCAAUAUUACGACCU | -0.37 ± 0.2 | -0.481 ± 0.14
83 | GUUAAGCAAUAUUACGAUCG | -1.18 ± 0.22 | -2.08 ± 0.25
84 | GUUAAGCAAUAUUACGCACA | -0.0375 ± 0.11 | -0.425 ± 0.09
85 | GUUAAGCAAUAUUACGCGGA | -0.987 ± 0.2 | -0.996 ± 0.27
86 | GUUAAGCAAUAUUACGCUAG | 0.113 ± 0.14 | -1.64 ± 0.11
87 | GUUAAGCAAUAUUACGCUGA | -1.4 ± 0.2 | -2.98 ± 0.22
88 | GUUAAGCAAUAUUACGCUUU | -0.79 ± 0.22 | -4.08 ± 0.43
89 | GUUAAGCAAUAUUACGGCAU | 0.0583 ± 0.18 | -0.746 ± 0.12
90 | GUUAAGCAAUAUUACGGCCU | 0.635 ± 0.44 | -0.808 ± 0.29
91 | GUUAAGCAAUAUUACGGGAC | -0.964 ± 0.23 | -1.6 ± 0.17
92 | GUUAAGCAAUAUUACGGGGC | -2.58 ± 0.25 | -3.5 ± 0.24
93 | GUUAAGCAAUAUUACGGGUU | -2.98 ± 0.23 | -3.44 ± 0.3
94 | GUUAAGCAAUAUUACGGUAU | -0.895 ± 0.12 | -1.36 ± 0.11
95 | GUUAAGCAAUAUUACGUACU | -0.935 ± 0.14 | -0.559 ± 0.15
96 | GUUAAGCAAUAUUACGUAGG | -1.16 ± 0.17 | -1.73 ± 0.1
97 | GUUAAGCAAUAUUACGUAUG | -1.36 ± 0.13 | -2.44 ± 0.12
98 | GUUAAGCAAUAUUACGUCGC | -1.83 ± 0.28 | -1.61 ± 0.21
